Changes are numbered by the printed parent chain. Names may count otherwise. Where no end group is shown, it is not given here.
What was measured:
[1] = biological target: T1, 6×His-tagged recombinant PHB2/REA protein (human, UniProt Q99623 77-244); test: Biacore 3000, 6×His-tagged recombinant PHB2/REA immobilized on a CM5 chip, peptide injected; Biacore; His-PHB2/REA on the chip, HA-tagged peptide injected
T1 construct: Expressed in Escherichia coli BL21 star (DE3); also called His-PHB2/REA; 6×His-PHB2/REA; not shown: hexahistidine tag, thioredoxin (TrxA) and TEV protease cut site at the amino terminal (pTAT6 vector)
T1 sequence (Q99623 77-244): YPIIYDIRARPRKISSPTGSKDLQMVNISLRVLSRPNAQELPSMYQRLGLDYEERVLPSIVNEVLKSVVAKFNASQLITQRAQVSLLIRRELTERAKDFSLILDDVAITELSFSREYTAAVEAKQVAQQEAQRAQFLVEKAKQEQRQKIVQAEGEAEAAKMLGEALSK

[2] = biological target: T2, inherent ERAP1 (Estrogen Receptor Activity-regulated Protein 1) (human, UniProt Q5TH69 1-2177); test: co-IP from cytoplasm and nuclear fractions of KPL-3C cells, 24 h, 10 nM E2 and/or 10 µM HA-tagged ERAP1-peptide; blot anti-HA
T2 construct: Endogenous protein immunoprecipitated from cell lysates; also called ERAP1 polypeptide; BIG3

[3] = biological target: T1, 6×His-tagged recombinant PHB2/REA …; test: fluorescence correlation spectroscopy, 10 nM FITC-tagged ERAP1-peptide with rising 6xHis-PHB2/REA; same constant as the 14.4 µM of the text, in mass units
[4] = biological target: T1, 6×His-tagged recombinant PHB2/REA …; test: fluorescence correlation spectroscopy, 10 nM FITC-tagged peptide with His-PHB2/REA at various concentrations; fluorescence correlation spectroscopy; 10 nM FITC-tagged peptide in solution
[5] = biological target: T3, HA-PHB2 (HA-tagged PHB2 construct) (human, UniProt Q99623 1-299, limits assumed); test: COS-7 co-transfection with the PHB2/REA construct, IP and immunoblot
T3 construct: Expressed by transfection in COS-7 or HEK293T cells; also called PHB2/REA construct; HA-tagged PHB2/REA (WT); not shown: HA tag
T3 sequence (Q99623 whole entry): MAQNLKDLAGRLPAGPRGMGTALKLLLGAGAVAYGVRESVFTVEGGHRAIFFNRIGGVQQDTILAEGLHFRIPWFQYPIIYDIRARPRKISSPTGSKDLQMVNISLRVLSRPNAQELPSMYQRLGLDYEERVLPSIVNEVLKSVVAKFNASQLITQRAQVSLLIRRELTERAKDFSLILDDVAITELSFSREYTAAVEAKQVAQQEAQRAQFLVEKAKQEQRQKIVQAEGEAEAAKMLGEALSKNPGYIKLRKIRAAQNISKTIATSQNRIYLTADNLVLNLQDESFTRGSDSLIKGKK

[6] = biological target: T3, HA-PHB2 (HA-tagged PHB2 construct); test: co-immunoprecipitation from COS-7 cells, IP anti-FLAG, blot anti-HA
[7] = biological target: T3, HA-PHB2 (HA-tagged PHB2 construct); test: co-immunoprecipitation from COS-7 cells, IP anti-FLAG and IP anti-HA
[8] = biological target: T3, HA-PHB2 (HA-tagged PHB2 construct); test: co-immunoprecipitation from COS-7 cells, IP anti-HA, blot anti-FLAG
[9] = biological target: T1, 6×His-tagged recombinant PHB2/REA …; test: fluorescence correlation spectroscopy, 10 nM FITC-tagged ERAP1-scramble peptide with rising 6xHis-PHB2/REA
[10] = biological target: EGFR (human, UniProt P00533 25-1210); test: anti-ERα co-IP from the cytoplasm fraction of BT-474 cells, 24 h, 10 nM E2 and/or 10 µM Peptide
[11] = biological target: Her2 (human, UniProt P04626 23-1255); test: as above
[12] = biological target: T4, NcoR (human, UniProt O75376 1-2440, limits assumed); test: co-IP from the nuclear fraction of KPL-3C cells, 24 h, 10 nM E2 and/or 10 µM Peptide
T4 construct: also called transcription coupling suppression factor NcoR
T4 sequence (O75376 whole entry): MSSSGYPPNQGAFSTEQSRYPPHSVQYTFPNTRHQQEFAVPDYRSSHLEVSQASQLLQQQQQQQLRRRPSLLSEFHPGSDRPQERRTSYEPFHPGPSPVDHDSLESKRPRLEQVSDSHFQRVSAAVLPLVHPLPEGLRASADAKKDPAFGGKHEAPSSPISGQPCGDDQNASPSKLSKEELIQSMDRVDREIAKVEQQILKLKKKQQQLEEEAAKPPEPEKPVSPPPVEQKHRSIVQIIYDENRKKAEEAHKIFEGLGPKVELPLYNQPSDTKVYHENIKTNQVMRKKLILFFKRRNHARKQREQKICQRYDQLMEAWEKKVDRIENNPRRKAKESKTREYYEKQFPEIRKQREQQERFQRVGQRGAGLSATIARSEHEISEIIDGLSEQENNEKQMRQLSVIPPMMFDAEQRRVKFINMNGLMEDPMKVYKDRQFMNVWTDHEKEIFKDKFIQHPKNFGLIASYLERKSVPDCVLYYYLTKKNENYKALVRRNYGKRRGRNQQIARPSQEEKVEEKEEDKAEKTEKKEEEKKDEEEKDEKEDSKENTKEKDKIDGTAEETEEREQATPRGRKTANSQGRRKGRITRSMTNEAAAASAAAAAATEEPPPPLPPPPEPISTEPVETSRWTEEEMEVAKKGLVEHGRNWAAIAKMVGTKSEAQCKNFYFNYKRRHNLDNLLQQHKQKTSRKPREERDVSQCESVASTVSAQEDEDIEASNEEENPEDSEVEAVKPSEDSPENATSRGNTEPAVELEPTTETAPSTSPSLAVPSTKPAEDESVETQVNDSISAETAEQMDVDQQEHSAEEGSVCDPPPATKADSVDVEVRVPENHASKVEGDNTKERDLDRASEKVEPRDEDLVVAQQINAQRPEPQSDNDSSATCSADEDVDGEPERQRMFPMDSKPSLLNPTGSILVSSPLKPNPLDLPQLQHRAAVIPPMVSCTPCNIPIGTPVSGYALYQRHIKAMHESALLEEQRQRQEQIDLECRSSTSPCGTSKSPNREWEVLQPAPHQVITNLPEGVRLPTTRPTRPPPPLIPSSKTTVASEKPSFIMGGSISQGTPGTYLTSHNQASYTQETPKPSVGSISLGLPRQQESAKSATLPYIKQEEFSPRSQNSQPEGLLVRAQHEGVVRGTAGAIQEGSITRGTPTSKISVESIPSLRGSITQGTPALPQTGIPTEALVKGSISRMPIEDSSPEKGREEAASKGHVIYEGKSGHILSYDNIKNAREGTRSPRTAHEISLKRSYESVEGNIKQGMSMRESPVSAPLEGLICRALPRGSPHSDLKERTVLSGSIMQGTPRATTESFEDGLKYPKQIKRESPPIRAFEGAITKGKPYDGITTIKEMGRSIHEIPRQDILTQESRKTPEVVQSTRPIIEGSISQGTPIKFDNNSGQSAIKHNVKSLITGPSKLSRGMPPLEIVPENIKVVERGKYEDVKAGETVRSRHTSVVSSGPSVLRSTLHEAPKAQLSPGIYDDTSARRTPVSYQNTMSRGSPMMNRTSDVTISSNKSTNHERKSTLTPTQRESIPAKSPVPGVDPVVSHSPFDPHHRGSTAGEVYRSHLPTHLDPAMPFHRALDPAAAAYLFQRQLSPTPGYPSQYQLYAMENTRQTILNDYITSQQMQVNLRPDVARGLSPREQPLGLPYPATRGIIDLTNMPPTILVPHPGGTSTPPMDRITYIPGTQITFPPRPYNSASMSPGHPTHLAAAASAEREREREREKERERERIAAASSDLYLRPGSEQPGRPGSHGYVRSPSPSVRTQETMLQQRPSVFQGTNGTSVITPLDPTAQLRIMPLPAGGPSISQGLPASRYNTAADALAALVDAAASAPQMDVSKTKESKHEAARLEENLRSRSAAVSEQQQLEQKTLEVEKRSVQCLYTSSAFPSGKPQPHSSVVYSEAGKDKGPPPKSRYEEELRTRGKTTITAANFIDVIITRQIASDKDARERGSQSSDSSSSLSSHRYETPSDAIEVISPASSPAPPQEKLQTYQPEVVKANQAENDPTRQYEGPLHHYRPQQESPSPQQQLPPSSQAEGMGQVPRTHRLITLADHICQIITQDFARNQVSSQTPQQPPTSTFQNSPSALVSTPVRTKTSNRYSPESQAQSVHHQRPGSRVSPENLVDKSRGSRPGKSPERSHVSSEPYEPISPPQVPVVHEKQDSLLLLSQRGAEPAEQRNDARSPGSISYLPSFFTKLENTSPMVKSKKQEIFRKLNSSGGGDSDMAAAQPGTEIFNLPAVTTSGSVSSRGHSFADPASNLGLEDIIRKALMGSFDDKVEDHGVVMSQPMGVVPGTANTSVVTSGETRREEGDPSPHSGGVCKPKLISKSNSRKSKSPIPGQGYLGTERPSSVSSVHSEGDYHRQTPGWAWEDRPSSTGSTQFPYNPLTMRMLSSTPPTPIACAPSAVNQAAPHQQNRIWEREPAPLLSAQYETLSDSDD

[13] = biological target: T1, 6×His-tagged recombinant PHB2/REA …; test: Ni-resin pull-down of 10 µg His-PHB2 mixed with lysate of Flag-tagged ERAP1 expressing cells and HA-peptide; blot for Peptide

B1: HA-tagged ERAP1-peptide (peptide)
peptide: RRRRRRRRRRRQMLSDLTLQLRQR
notes: ERAP1-peptide to which an HA tag was added; also called ERAP1-HA-peptide; HA tag-added peptide; not shown: HA tag
With B1 the Kd [1] was 18.9 µM and the binding result [2] was “no binding (tested: 10 µM)”.

RRRRRRRRRRRQMLSDLTLQLRQR (also: FITC tag, position not given here) [FITC-tagged ERAP1-peptide] was tested, and the Kd [3] was 480 µg/mL and the Kd [4] was 14.4 µM.

B2: ERAP1 mutant (alanine mutant of Q165, D169 and Q173) (other)
chain: MEEILRKLQKEASGSKYKAIKESCTWALETLGGLDTIVKIPPHVLREKCLLPLQLALESKNVKLAQHALAGMQKLLSEERFVSMETDSDEKQLLNQILNAVKVTPSLNEDLQVEVMKVLLCITYTPTFDLNGSAVLKIAEVCIETYISSCHQRSINTAVRATLSAMLSALTLALRQRQENTIIENPDVPQDFGNQGSTVESLCDDVVSVLTVLCEKLQAAINDSQQLQLLYLECILSVLSSSSSSMHLHRRFTDLIWKNLCPALIVILGNPIHDKTITSAHTSSTSTSLESDSASPGVSDHGRGSGCSCTAPALSGPVARTIYYIAAELVRLVGSVDSMKPVLQSLYHRVLLYPPPQHRVEAIKIMKEILGSPQRLCDLAGPSSTESESRKRSISKRKSHLDLLKLIMDGMTEACIKGGIEACYAAVSCVCTLL
notes: not shown: Flag tag
For B2, the “coprecipitation band, ratio when that with ERAP1 (1-434 aa) is designated as 100” value [5] was 2%, the “ratio of the coprecipitated band (ERAP1 1-434 = 100)” value (“ratio of the coprecipitated band” below) [6] was 1 and the binding result [7] was “no binding”.

B3: Q173A (other)
single chain: B2 chain with A165Q, A169D
notes: Construct named in the text, but absent from the list MOLECULES; its band ratios stand only on the sheet; also called alanine mutant of Q173 (Q173A)
With B3 the “ratio of the coprecipitated band” value [6] was 79 and the “ratio of the coprecipitated band” value [8] was 52.

B4: scrPeptide (peptide)
peptide: DRQLQLSTLQRML
modifications: also: FITC tag, position not given here
notes: also called FITC-tagged ERAP1-scramble peptide
B4: no binding (tested: about 1.25 mg/mL) [9].

B5: estrogen receptor α (ERα) (receptor)
chain: MTMTLHTKASGMALLHQIQGNELEPLNRPQLKIPLERPLGEVYLDSSKPAVYNYPEGAAYEFNAAAAANAQVYGQTGLPYGPGSEAAAFGSNGLGGFPPLNSVSPSPLMLLHPPPQLSPFLQPHGQQVPYYLENEPSGYTVREAGPPAFYRPNSDNRRQGGRERLASTNDKGSMAMESAKETRYCAVCNDYASGYHYGVWSCEGCKAFFKRSIQGHNDYMCPATNQCTIDKNRRKSCQACRLRKCYEVGMMKGGIRKDRRGGRMLKHKRQRDDGEGRGEVGSAGDMRAANLWPSPLMIKRSKKNSLALSLTADQMVSALLDAEPPILYSEYDPTRPFSEASMMGLLTNLADRELVHMINWAKRVPGFVDLTLHDQVHLLECAWLEILMIGLVWRSMEHPGKLLFAPNLLLDRNQGKCVEGMVEIFDMLLATSSRFRMMNLQGEEFVCLKSIILLNSGVYTFLSSTLKSLEEKDHIHRVLDKITDTLIHLMAKAGLTLQQQHQRLAQLLLILSHIRHMSNKGMEHLYSMKCKNVVPLYDLLLEMLDAHRLHAPTSRGGASVEETDQSHLATAGSTSSHSLQKYYITGEAEGFPATV
notes: Immunoprecipitated with anti-ERα antibody from cytoplasm or nuclear fractions
B5: binds [10]; binds [11]; binds [12].

B6: Scramble (HA-Peptide) (peptide)
single chain: DRQLQLSTLQRML
notes: it is detected in the Peptide blot, so it carries the tag; also called HA-tagged ERAP1-scramble peptide
B6: no binding (tested: 100 µM) [13].

From patent publication US20140162952A1 (ONCOTHERAPY SCIENCE, published 2014)
